From patent publication US20260263554A1, “COMPOSITION COMPRISING CPNE7 PROTEIN OR CPNE7 PROTEIN-DERIVED PEPTIDE FOR REMOVING REACTIVE OXYGEN SPECIES IN CELLS” (HYSENSBIO CO., LTD, priority 2022, published 2026)

What was measured:
[1] = test system: endogenous antioxidant enzymes in hDPC cells; assay: mRNA levels of endogenous antioxidant enzymes by RT-PCR; assay type: cell-based, human; settings: hDPCs, 1 mM H2O2, CPNE7 recombinant protein 100 ng/mL or Selcopintide 10 ug/mL
Description: Cultured hDPCs were seeded into 60 mm culture dishes at a density of 4×10^5 cells, cultured for 24 hours, and then treated with 1 mM H2O2 and treated with the CPNE7 recombinant protein (100 ng/mL) and Selcopintide (10 ug/mL). After 30 minutes and one hour, the mRNA levels of Sod1, 2, and 3, catalase, Gpx7, Hmox1, and Txmd1 were checked.

hDPCs [2] = assay: Immunofluorescence staining with γ-H2A.X (DNA damage marker); assay type: cell-based, human; settings: 1 mM H2O2, 100 ng/mL CPNE7 recombinant protein, 24 hours, vs 1 mM H2O2 group
Description: Cultured hDPCs were seeded into 35 mm culture dishes for a confocal microscope at a density of 1×10^5 cells, cultured for 24 hours, and then treated with 1 mM H2O2 and treated with 100 ng/mL of rCPNE7. After 24 hours, the cells were fixed with 4% paraformaldehyde.
Immunofluorescence staining using a γ-H2A.X antibody was performed on the fixed cells to compare intensity.
Cultured hDPCs were seeded into 35 mm culture dishes for a confocal microscope at a density of 1×10^5 cells, cultured for 24 hours, and then treated with 1 mM H2O2 and treated with 10 μg/mL of Selcopintide. After 24 hours, the cells were fixed with 4% paraformaldehyde.

hDPCs [3] = assay: Beta-galactosidase (B-gal) staining, cell aging; assay type: cell-based, human; settings: 1 mM H2O2, 100 ng/mL rCPNE7, 12 or 24 hours, compared to H2O2-only-treated group
Description: For this purpose, cultured hDPCs were seeded into 6-well plates at a density of 1×10^5 cells, cultured for 24 hours, and then treated with 1 mM H2O2 and treated with 100 ng/mL of rCPNE7. After 12 or 24 hours, the cells were fixed with 4% paraformaldehyde.
Next, B-gal staining was performed on the fixed cells for 24 hours to compare the degree of cell aging.

[4] = test system: Human dental pulp cells (hDPCs); assay: Optical microscope observation of hDPCs after H2O2 and test substance; assay type: cell-based; settings: H2O2 5 uM, 100 uM, 1 mM or 2 mM, 100 ng/ml recombinant CPNE7 protein, 24 hours, compared to control without rCPNE7
Description: Human dental pulp cells (hDPCs) were cultured in an α-MEM medium containing 10% FBS under 37° C. and 5% CO2 conditions.
hDPCs were seeded into 35 mm culture dishes at a density of 1×10^5 cells, cultured for 24 hours, treated with H2O2 at a concentration of 5 uM, 100 uM, 1 mM, or 2 mM, respectively, and then treated with 100 ng/ml of a recombinant CPNE7 protein and cultured for 24 hours. After the culture was completed, the cultured cells were washed with PBS, and observed using an optical microscope. At this time, the hDPCs cultured without treating the recombinant CPNE7 protein (rCPNE7) were used as the control.
Cultured hDPC cells were seeded into 6-well plates at a density of 1×10^5 cells per well, cultured for 24 hours, and then treated with 1 mM hydrogen peroxide (H2O2) and treated with Selcopintide at concentrations of 1 μg/mL, 10 μg/mL, 100 μg/mL, and 500 μg/mL for 24 hours. Untreated hDPCs were used as the control.

hDPCs [5] = assay: Reactive oxygen species level with DCFDA, confocal microscope; assay type: cell-based, human; settings: 1 mM H2O2, 100 ng/mL rCPNE7, imaged for approximately one hour
Description: Cultured hDPCs were seeded into 35 mm culture dishes for a confocal microscope at a density of 1×10^5 cells, cultured for 24 hours, and then treated with 1 mM H2O2 and treated with 100 ng/mL of rCPNE7. Then, images were taken for approximately one hour using a confocal microscope.
Cultured hDPCs were seeded into 35 mm culture dishes for a confocal microscope at a density of 1×10^5 cells, cultured for 24 hours, and then treated with 1 mM H2O2 and treated with 10 μg/mL of Selcopintide. Thereafter, images were taken for approximately one hour using a confocal microscope.

B1: CPNE7 recombinant protein: recombinant Copine-7 (CPNE7) protein (protein, UniProt Q9UBL6 1-633, looked up)
Copine-7: MSAGSERGAAATPGGLPAPCASKVELRLSCRHLLDRDPLTKSDPSVALLQQAQGQWVQVGRTEVVRSSLHPVFSKVFTVDYYFEEVQRLRFEVYDTHGPSGFSCQEDDFLGGMECTLGQPAQKWLLQVVMRVSVDVLGPAGHCAKHFLCCTESSHLARTGPSFLLRYDDLCLPWATAGAVRWWTCRGGHTQGWQIVAQKKVTRPLLLKFGRNAGKSTITVIAEDISGNNGYVELSFRARKLDDKDLFSKSDPFLELYRVNDDQGLQLVYRTEVVKNNLNPVWEAFKVSLSSLCSCEETRPLKCLVWDYDSRGKHDFIGEFSTTFEEMQKAFEEGQAQWDCVNPKYKQKRRSYKNSGVVVLADLKFHRVYSFLDYIMGGCQIHFTVAIDFTASNGDPRNSCSLHYINPYQPNEYLKALVSVGEICQDYDSDKRFSALGFGARIPPKYEVSHDFAINFNPEDDECEGIQGVVEAYQNCLPRVQLYGPTNVAPIISKVARVAAAEESTGKASQYYILLILTDGVVTDMADTREAIVRASRLPMSIIIVGVGNADFTDMQVLDGDDGVLRSPRGEPALRDIVQFVPFRELKNASPAALAKCVLAEVPKQVVEYYSHRGLPPRSLGVPAGEASPGCTP
[1]; after 30 minutes, compared to H2O2-only-treated group
  mRNA of endogenous antioxidant enzymes Sod1, 2, and catalase: significantly increased
[1]; after one hour
  mRNA of Sod1 and Gpx7, and Hmox1 and Txrnd1: significantly increased
hDPCs [2]
  accumulation of DNA damage (γ-H2A.X intensity): significantly reduced
hDPCs [3]
  B-gal positive hDPC cells: significantly reduced
[4]
  cell viability (optical microscope): higher
hDPCs [5]
  amount of reactive oxygen species (DCFDA): decreased and became significant at approximately one hour
